From patent US6310180

Assays:
[1] = target: substrate IV, H-Lys-Ala-Arg-Val-Nle-Phe(p-NO2)-Glu-Ala-Nle-NH2 (HIV)
[2] = system: substrate IV, H-Lys-Ala-Arg-Val-Nle-Phe(p-NO2)-Glu-Ala-Nle-NH2; test: steady-state kinetics of substrate IV hydrolysis at 22° C., RP HPLC; the filing calls Km the binding affinity

Row | Substance | kcat/Km, hydrolysis of substrate IV [1] | Km [2]
1 | recombinant HIV-1 PR (enzyme) | 121000 M^-1, S^-1 | –
2 | [Ala^38, SPro^39, Abu^67,95]-HIV-1 PR | – | 8.2 µM
3 | [SPro^39, Abu^67,95]-HIV-1 PR (enzyme) | 119000 M^-1, S^-1 | –
4 | [SPro^39, Abu^67,95]-HIV-1 PR | – | 11.9 µM
5 | recombinant HIV-1 PR | – | 10.1 µM
6 | [Leu-NHCH2-Thz^38-39, Abu^67,95]-HIV-1 PR (enzyme) | 36300 M^-1, S^-1 | –
7 | [Ala^38, SPro^39, Abu^67,95]-HIV-1 PR (enzyme) | 98400 M^-1, S^-1 | –
8 | [Leu-NHCH2-Thz^38-39, Abu^67,95]-HIV-1 PR | – | 11.4 µM
